Assay results published in patent US20250163117A1 (CURE GENETICS, published 2025).

Legend:
Experiment in all cases: cell-based or functional assay
[1] = target: T1, mouse intermediate-affinity IL-2 receptor IL-2Rβγ on cells (mouse, UniProt P16297 27-539; P34902 23-369)
T1 sequence (looked up) 1: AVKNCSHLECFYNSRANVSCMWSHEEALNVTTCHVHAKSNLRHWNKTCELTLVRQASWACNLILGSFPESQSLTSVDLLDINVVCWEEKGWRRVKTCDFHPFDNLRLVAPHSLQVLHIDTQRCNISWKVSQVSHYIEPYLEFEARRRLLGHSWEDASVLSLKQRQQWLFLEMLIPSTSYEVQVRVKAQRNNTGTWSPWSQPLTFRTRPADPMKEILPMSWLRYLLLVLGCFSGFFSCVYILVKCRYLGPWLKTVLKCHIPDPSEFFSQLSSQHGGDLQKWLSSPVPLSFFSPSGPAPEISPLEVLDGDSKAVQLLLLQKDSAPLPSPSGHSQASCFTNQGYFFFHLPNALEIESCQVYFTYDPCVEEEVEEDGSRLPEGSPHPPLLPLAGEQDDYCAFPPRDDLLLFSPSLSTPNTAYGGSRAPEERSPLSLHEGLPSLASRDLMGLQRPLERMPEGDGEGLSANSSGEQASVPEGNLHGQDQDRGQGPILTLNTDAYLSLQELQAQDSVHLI
T1 sequence (looked up) 2: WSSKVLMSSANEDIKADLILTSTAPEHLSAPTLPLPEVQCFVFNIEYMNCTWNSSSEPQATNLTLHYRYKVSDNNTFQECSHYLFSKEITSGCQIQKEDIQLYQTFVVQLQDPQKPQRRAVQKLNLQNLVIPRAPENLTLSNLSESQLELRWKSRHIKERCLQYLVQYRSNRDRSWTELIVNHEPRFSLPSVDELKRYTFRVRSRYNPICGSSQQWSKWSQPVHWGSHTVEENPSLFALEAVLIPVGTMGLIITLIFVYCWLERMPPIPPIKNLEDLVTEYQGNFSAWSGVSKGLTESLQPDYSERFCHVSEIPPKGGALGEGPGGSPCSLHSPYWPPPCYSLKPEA

[2] = target: T2, human intermediate-affinity IL-2 receptor IL-2Rβγ on cells (human, UniProt P14784 27-551; P31785 23-369)
T2 sequence (looked up) 1: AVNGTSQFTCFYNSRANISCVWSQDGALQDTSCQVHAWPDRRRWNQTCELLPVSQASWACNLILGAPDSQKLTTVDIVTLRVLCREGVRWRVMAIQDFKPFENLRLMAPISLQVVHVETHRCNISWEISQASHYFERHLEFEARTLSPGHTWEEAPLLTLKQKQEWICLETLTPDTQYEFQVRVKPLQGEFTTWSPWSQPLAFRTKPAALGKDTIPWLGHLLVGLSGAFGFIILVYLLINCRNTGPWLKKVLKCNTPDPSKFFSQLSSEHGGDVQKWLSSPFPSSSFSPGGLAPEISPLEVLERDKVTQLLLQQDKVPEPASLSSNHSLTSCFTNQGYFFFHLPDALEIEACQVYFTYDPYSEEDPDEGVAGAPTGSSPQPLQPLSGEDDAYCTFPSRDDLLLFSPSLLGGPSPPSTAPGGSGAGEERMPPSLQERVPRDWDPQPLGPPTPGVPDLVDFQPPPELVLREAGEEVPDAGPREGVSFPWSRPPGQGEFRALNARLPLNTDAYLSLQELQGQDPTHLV
T2 sequence (looked up) 2: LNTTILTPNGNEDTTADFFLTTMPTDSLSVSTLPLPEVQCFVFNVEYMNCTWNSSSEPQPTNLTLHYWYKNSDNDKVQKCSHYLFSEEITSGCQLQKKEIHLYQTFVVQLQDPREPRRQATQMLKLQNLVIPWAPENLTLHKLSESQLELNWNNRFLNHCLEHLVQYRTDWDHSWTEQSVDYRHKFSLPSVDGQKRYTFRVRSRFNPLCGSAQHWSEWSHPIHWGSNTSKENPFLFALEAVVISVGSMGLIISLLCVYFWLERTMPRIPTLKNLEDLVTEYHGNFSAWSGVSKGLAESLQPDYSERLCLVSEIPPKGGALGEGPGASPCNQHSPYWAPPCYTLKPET

[3] = target: T3, human high-affinity IL-2 receptor IL-2Rαβγ on cells (human, UniProt P01589 22-272; P14784 27-551; P31785 23-369)
T3 sequence (looked up) 1: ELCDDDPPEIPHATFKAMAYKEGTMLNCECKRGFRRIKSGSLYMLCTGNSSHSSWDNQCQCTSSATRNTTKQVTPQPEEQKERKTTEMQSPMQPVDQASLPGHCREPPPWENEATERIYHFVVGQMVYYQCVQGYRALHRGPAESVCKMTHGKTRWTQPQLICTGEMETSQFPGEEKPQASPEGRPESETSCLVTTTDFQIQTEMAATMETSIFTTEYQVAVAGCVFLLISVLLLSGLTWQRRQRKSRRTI
T3 sequence (looked up) 2: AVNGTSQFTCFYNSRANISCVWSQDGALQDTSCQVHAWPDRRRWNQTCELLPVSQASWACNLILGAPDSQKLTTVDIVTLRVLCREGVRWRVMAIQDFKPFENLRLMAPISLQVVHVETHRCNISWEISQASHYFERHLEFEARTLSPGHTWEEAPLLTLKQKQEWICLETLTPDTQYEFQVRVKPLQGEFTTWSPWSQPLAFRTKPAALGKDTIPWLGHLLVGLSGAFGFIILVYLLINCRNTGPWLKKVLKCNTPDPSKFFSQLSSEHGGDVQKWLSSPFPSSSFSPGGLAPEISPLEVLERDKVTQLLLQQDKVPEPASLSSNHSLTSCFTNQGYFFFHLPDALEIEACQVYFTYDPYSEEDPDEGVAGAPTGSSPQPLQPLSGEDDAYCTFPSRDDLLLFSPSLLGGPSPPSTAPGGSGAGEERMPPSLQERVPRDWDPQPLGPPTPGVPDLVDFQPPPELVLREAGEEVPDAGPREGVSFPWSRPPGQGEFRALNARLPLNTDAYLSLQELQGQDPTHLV
T3 sequence (looked up) 3: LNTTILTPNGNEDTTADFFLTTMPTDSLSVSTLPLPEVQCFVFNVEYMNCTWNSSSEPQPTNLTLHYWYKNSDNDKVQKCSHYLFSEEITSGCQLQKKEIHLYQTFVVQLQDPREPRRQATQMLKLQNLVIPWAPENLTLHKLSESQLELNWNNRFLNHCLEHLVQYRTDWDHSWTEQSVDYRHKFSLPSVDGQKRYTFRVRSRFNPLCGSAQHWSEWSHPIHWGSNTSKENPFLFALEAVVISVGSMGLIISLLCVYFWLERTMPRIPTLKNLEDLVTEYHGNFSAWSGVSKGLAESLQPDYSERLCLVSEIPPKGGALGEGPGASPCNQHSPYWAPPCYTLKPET

[4] = target: T4, mouse high-affinity IL-2 receptor IL-2Rαβγ on cells (mouse, UniProt P01590 22-268; P16297 27-539; P34902 23-369)
T4 sequence (looked up) 1: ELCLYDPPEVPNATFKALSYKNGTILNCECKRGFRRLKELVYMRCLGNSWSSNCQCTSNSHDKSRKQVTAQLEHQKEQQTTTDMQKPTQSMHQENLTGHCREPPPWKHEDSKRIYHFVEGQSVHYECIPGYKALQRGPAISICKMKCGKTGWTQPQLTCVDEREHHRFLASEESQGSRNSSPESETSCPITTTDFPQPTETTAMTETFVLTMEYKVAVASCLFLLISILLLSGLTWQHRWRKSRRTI
T4 sequence (looked up) 2: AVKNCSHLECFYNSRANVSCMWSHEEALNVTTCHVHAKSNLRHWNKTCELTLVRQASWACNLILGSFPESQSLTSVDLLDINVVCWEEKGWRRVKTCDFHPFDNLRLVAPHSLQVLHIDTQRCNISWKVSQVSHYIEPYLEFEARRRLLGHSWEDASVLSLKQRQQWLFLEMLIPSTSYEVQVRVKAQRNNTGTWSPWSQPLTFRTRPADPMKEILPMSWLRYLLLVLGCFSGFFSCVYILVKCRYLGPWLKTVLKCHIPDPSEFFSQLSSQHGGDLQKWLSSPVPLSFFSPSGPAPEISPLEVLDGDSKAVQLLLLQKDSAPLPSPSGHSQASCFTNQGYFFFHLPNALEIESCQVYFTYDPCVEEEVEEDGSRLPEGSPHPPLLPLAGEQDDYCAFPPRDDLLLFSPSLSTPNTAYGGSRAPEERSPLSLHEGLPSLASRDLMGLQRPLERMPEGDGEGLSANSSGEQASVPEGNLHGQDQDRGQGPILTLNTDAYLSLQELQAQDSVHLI
T4 sequence (looked up) 3: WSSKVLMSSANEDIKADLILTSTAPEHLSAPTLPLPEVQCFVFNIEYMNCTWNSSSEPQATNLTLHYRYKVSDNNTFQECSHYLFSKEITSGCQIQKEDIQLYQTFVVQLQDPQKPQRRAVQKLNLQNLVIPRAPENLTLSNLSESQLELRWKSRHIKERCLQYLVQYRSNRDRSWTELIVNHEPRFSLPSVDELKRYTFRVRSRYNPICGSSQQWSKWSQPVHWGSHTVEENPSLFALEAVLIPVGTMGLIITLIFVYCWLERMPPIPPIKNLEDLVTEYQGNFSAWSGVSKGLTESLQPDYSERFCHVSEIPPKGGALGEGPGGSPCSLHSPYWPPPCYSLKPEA

[5] = target: T2, human intermediate-affinity IL-2 …; remark: listed apart in the source

EC50 of STAT5 activation, mouse CD8 T cells (flow cytometry) [1]: 91.8 nM
EC50 of STAT5 activation, mouse NK cells (flow cytometry) [1]: 84 nM
EC50 of STAT5 activation, human CD8 T cells (flow cytometry) [2]: 18.6 nM
EC50 of STAT5 activation, human NK cells (flow cytometry) [2]: 5.11 nM
EC50 of STAT5 activation, human Tregs (flow cytometry) [3]: 7.91 nM
EC50 of STAT5 activation, mouse Tregs (flow cytometry) [4]: 52 nM
EC50 (read off the curve): STAT5 phosphorylation in HH cells [5]: ~6 nM
B1: CP-trIL-2 012 (ligand)
chain: PTSSSTKKTQLQLEHLLLDLQMILNGINNYKNPLRPRDLISNINVIVLELKGSETTELKHLQSLEEELKDLEEVLNLAQSKNFHTIVEFLNRWITFSQSIISTLT
notes: H1-H3-H2-H4; loops 1 and 2 removed; de-Ala1, C58S, C125S, P65D
